Experimental data reported in IntAct's records for PubMed 17196169.

B1: Programmed cell death protein 6 (Homo sapiens), O75340 (parent)
chain: MAAYSYRPGPGAGPGPAAGAALPDQSFLWNVFQRVDKDRSGVISDTELQQALSNGTWTPFNPVTVRSIISMFDRENKAGVNFSEFTGVWKYITDWQNVFRTYDRDNSGMIDKNELKQALSGFGYRLSDQFHDILIRKFDRQGRGQIAFDDFIQGCIVLQRLTDIFRRYDTDQDGWIQVSYEQYLSMVFSIV
partner: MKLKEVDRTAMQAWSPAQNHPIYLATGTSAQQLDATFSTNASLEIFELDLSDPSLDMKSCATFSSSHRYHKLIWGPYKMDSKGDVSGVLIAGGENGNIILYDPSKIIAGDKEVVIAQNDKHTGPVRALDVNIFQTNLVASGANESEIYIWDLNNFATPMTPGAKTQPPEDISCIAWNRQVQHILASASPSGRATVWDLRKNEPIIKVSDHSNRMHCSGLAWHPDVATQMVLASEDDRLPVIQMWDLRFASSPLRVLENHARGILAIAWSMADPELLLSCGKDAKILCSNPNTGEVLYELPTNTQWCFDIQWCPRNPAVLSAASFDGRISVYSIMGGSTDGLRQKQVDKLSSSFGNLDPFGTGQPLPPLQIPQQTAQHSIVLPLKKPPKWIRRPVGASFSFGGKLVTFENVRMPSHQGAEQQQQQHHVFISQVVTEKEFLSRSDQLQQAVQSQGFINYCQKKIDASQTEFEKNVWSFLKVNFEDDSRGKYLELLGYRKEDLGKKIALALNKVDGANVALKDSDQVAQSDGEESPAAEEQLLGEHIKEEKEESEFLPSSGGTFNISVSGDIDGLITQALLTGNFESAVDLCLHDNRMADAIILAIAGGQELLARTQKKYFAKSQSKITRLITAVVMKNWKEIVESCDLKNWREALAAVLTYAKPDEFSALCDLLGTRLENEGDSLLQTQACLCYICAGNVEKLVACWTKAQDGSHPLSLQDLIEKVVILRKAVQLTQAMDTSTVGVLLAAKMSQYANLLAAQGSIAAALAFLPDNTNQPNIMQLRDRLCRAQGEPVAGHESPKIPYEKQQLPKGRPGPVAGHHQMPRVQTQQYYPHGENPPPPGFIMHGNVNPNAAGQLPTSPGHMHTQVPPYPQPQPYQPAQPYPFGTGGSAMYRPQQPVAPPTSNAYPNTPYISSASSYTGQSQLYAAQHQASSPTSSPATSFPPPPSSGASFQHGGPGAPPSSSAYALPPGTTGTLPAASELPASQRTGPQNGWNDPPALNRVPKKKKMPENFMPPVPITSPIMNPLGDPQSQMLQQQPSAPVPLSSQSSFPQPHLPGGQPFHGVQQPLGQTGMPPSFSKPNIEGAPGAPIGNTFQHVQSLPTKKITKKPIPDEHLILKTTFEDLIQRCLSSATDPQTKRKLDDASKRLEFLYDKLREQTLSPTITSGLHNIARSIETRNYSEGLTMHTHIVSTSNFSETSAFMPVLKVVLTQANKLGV

Variants of: B1
Conditions: with sc31a_human SEC31A

| Variant | effect of a mutation on the interaction |
| --- | --- |
| E47A;E114A | decreasing interaction |
